For this assay, the target named is T1, murine β2GPI (in normal mouse serum) (mouse, UniProt Q01339 20-345).
T1 construct: mature; also called mouse β2GPI
T1 sequence (looked up): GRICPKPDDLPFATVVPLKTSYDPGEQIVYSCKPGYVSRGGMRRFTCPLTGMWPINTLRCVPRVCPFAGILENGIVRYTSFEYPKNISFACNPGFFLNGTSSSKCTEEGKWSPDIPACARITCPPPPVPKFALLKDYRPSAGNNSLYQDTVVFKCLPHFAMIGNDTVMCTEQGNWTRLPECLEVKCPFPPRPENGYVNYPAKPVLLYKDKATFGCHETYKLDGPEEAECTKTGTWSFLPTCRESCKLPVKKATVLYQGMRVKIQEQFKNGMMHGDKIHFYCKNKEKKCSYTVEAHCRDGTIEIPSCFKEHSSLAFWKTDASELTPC
Nature of the assay: immunoblot of 10% normal mouse serum. In general terms: In western blotting, separated proteins are transferred to a membrane and probed.

B1: 3G4 mouse monoclonal antibody as used in Example XXX (converted to mouse IgG2a isotype, produced in NS0 cells) (antibody, V domains shown)
VH: EVQLQQSGPELEKPGASVKLSCKASGYSFTGYNMNWVKQSHGKSLEWIGHIDPYYGDTSYNQKFRGKATLTVDKSSSTAYMQLKSLTSEDSAVYYCVKGGYYGHWYFDVWGAGTTVTVSS
VL: DIQMTQSPSSLSASLGERVSLTCRASQDIGSSLNWLQQGPDGTIKRLIYATSSLDSGVPKRFSGSRSGSDYSLTISSLESEDFVDYYCLQYVSSPPTFGAGTKLELKR
notes: It was purified from serum-free media (SFM) or serum-containing media (SCM); also called 3G4 SFM; 3G4 SCM
Take B1: the binding result was “no binding (tested: 1 µg/ml)”.

Values taken from US20060228299A1 (University of Texas, published 2006).
